Measurements: US20120282637A1 (Sanofi, published 2012)
Numbering of substitutions follows the chain as printed. Blank lines part the entries; values can stand above or below the binder they belong to.

Molecular target: T1, sRAGE (V-C1-C2) lot LP08062 (human, UniProt Q15109 23-331, limits assumed)
T1 construct: domain: V-C1-C2; also called Human RAGE; LP08062 (Rage)
Experiment: SPR (Biacore), mAb captured on anti-mouse Fc, sRAGE 15 nM, Langmuir 1:1
Description: The assay is based on a capture assay using immobilized anti-mouse Fc IgG on CM5 chip. For immobilization of anti-Fc antibody HBS-EP was used as running buffer. Standard amine coupling to a CM5 chip was carried out at a contact time of 11 min and a flow rate of 10 μl/min. 10 mM Sodium Acetate pH 5.0 was used as immobilization buffer. The protein concentration (anti-mouse Fc, Biacore BR-1008-38) was 100 μg/mL.
For binding analysis SN anti-RAGE mAb diluted in running buffer at 1/10 (flow rate 5 μl/min) and sRAGE (V-C1-C2) lot LP08062 diluted in running buffer at 15 nM (flow rate 50 μl/min) was used as […], respectively (running buffer: HBS-P+BSA 12 mg/mL+CM Dextran 12 mg/mL and Regeneration solution: 10 mM Glycine pH 1.7). Langmuir 1:1 analysis was used as fitting model.

T1 sequence (Q15109 23-331 limits assumed): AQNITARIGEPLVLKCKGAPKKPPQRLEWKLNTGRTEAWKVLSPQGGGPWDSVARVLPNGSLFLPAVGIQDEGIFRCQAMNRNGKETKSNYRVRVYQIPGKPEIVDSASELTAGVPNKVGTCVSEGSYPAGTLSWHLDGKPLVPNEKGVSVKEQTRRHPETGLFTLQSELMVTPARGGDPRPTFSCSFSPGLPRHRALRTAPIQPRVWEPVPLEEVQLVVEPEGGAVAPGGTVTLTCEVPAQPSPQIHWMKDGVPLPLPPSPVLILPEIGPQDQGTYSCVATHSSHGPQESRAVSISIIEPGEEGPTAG

B1: 184 RAGE-1 (antibody, V domains shown)
VH: QVQLQQSGAELVRPGTSVKVSCKASGYAFTNYLIEWVKQRPGQGLEWIGMINPGSGGTNYNEKFKGKATLTADKSSSTAYMQLSSLTSDDSAVYFCARGRGGHYRYFDVWGAGTTVTVSS
VL: DIVLTQSPASLAVSLGQRATISCRASKSVSTSGYSYMHWYQQKPGQPPKLLIYLASHLESGVPARFSGSGSGTDFSLNIHPVEEEDAATYYCQHSRELPWTFGGGTKLEIK
notes: Anti-RAGE monoclonal antibody from a hybridoma, captured by anti-mouse Fc; also called Protein 184 RAGE-1
Kd: 595 pM
koff: 0.00163 s⁻¹
kon: 2.74e+06 M⁻¹ s⁻¹

B2: 259 RAGE-1 (antibody, V domains shown)
VH: QVQLQQSGAELVRPGTSVKVSCKASGYAFTNYLIDWVNQRPGQGLEWIGVINPGSGGTNYNEKFTGKATLTADKSSSTAYMQLSSLTSDDSAVYFCARRRVDTMDYWGQGTSVTVSS
VL: QAVVTQESALTTSPGETVTLTCRSSTGAVTTSNYANWVQEKPDHLFTGLIGGTNNRAPGVPARFSGSLIGDKAALTITGAQTEDEAIYFCALWYSNHWVFGGGTKLTVL
notes: Anti-RAGE monoclonal antibody from a hybridoma, captured by anti-mouse Fc; also called Protein 259 RAGE -1
Kd: 516 pM
koff: 0.00224 s⁻¹
kon: 4.34e+06 M⁻¹ s⁻¹

B3: 529 RAGE-1 (antibody, V domains shown)
VH: EIQLQQTGPELVKPGASVKISCKASGYSFTDYIMLWVKQSHGKSLEWIGNINPYYGSTFYNLKFKGKATLTVDKSSSTAYMQLNSLTSEDSAVYYCARSDYWYFDVWGAGTTVTVSS
VL: B2 VL with A57S, W98L
notes: Anti-RAGE monoclonal antibody from a hybridoma, captured by anti-mouse Fc
Kd: 552 pM
koff: 0.00169 s⁻¹
kon: 3.06e+06 M⁻¹ s⁻¹

B6: 499 RAGE-1 (antibody, V domains shown)
VH: EVQLQQSGTVLARPGASVKMSCKASGYTFTSYWMHWVKQRPGQGLEWIGAIYPGDSDTYYNQKFKGKAKLTAVTSTSTAYMELSSLTNEDSAVYYCTRNWDYWGQGTTLTVSS
VL: DIVMTQSHKFMSTSVGDRVSITCKASQDVSTAVAWYQQKPGQSPKLLIYSASYRYTGVPDRFTGSGSGTDFTFTISSVQAEDLAVYYCQQHYNTPRTFGGGTKLEIK
notes: Anti-RAGE monoclonal antibody from a hybridoma, captured by anti-mouse Fc; also called Protein 499 RAGE-1
Kd: 793 pM
koff: 0.00157 s⁻¹
kon: 1.98e+06 M⁻¹ s⁻¹

B8: 183 RAGE-1 (antibody, V domains shown)
VH: EVQLQQSGTVLARPGASVKMSCKASGYSFTSYWMHWVKQRPGQGLEWIGAIFPGNSDTTYNQKFKGKAKLTAVTSASTAYMELSSLTNEDSAVYYCTGLRRGFPYWGQGTLVTVSV
VL: NIVMTQSPKSMSMSVGERVTLSCKASENVGTYVSWYQQKPEQSPKLLIYGASNRYTGVPDRFTGSGSATDFTLTISSVQAEDLADYHCGQSYSYPYTFGGGTKLEIK
notes: Anti-RAGE monoclonal antibody from a hybridoma, captured by anti-mouse Fc; also called Protein 183 RAGE-1
Kd: 1730 pM
koff: 0.00273 s⁻¹
kon: 1.58e+06 M⁻¹ s⁻¹

Stronger by Kd, values ahead:

Kd: 85.8 pM
koff: 0.000103 s⁻¹
kon: 1.2e+06 M⁻¹ s⁻¹
B4: 501-4 RAGE-1 (antibody, V domains shown)
VH: EVMLVDSGGGLVKPGGSLKLSCAASGFTFRSYAMSWVRQTPEKRLEWVATISSGGSYTYYPDSVRGRFTTSRDNGKNTLYLQMSSLRSEDTAMYYCARHGGNYSAWFTYWGQGTLVTVSA
VL: B2 VL with G59D
notes: as for B3

Kd: 371 pM
koff: 0.00196 s⁻¹
kon: 5.29e+06 M⁻¹ s⁻¹
B5: 283 RAGE-1 (antibody, V domains shown)
VH: QVQLQQSGAELVRPGTSVKVSCKASGYAFTNYLIEWVKQRPGQGLEWIGVINPGSGGTNYSERFKGKATLTADKSSSTAYMQLSSLTSDDSAVYFCASYRYDGGMDYWGQGTSVTVSS
VL: B2 VL with G51R
notes: Anti-RAGE monoclonal antibody from a hybridoma, captured by anti-mouse Fc; also called Protein 283 RAGE-1

Kd: 276 pM
koff: 0.00107 s⁻¹
kon: 3.88e+06 M⁻¹ s⁻¹
B7: 210 RAGE-1 (antibody, V domains shown)
VH: EIQLQQTGPELVKPGASVKISCKASGYSFTDYIMVWVKQSHGKSLEWIGTINPYYGSTSYNLKFKGKATLTVDKSSSTANMQLNSLTSEDSAVYYCARLRLYAMDYWGQGTSVTVSS
VL: QAVVTQESALTTSPGETVTLTCRSSTGAVTTSNYANWVQEKPDHLFTGLIGGTNNRAPGVPARFSGSLIGDKAALTITGAQTEDEAIYFCALWYSNHFWVFGGGTKLTVL
notes: Anti-RAGE monoclonal antibody from a hybridoma, captured by anti-mouse Fc; also called Protein 210 RAGE-1
